The assay concerns the target truncated human NOTCH2^ΔERA-TurboID (human). The assay can be described thus: proximity labelling; TurboID fusions stably expressed in HT-29; 500 uM biotin for one hour; streptavidin beads; label-free quantitative mass spectrometry (DIA, Q-Exactive HF X), TurboID alone as control.

Turning to “endogenous human NOTCH2 (NICD2) (natural protein)”, the Log2FC NICD2RA-vs-NICD2 (log2 fold change) is -2.03 and the percent of the NOTCH2 recovered (against NICD2-TurboID) was found to be 13%.

The values are drawn from publication PMC11670933.
